Results on one substance are retold here after paper PMC10219671.

The IC50 is the concentration that inhibits the measured activity by half.

The target of the experiment is SARS-CoV-2 HR2 protein (heptad repeat 2 of the S2 subunit of the spike protein) (SARS-CoV-2). In words: ELISA. Background: An ELISA detects its analyte on a solid surface through an enzyme-linked reagent.

As to “SARS-CoV-2 HR1 protein (heptad repeat 1 of the S2 subunit of the spike protein) (domain or fragment)”, the IC50 was found to be 47.8 nM.
